In article PMC4860835, “ALG-2 activates the MVB sorting function of ALIX through relieving its intramolecular interaction” (Cell Discovery, 2015):

Target: T1, ALIX (endogenous, HEK293 cells) (human (endogenous in HEK293), UniProt Q8WUM4 1-868)
T1 construct: also called cytosolic ALIX; AIP1
T1 sequence (looked up): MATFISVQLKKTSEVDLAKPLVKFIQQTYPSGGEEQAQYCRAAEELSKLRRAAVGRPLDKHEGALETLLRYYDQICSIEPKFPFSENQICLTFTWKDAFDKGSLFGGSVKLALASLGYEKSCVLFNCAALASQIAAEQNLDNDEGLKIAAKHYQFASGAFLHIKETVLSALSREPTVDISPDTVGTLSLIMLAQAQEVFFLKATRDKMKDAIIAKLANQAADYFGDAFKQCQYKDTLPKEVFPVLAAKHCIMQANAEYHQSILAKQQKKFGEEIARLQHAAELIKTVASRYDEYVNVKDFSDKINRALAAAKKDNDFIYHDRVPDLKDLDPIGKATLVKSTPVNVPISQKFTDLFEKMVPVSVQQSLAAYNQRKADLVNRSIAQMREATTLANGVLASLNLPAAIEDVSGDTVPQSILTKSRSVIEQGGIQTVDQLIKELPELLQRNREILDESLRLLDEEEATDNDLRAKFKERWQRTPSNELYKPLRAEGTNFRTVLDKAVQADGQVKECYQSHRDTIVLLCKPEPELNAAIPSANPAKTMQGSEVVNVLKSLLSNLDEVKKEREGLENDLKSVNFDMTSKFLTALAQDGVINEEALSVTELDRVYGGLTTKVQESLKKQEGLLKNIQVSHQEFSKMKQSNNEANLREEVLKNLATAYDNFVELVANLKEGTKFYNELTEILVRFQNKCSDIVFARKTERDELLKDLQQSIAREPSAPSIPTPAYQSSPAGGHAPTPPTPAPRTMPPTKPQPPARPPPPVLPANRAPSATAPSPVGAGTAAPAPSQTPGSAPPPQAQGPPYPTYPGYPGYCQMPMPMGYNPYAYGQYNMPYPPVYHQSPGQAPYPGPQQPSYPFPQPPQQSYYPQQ
Assay: co-IP; 0.1% Triton X-100-solubilized HEK293 cell lysates, 10 μM CaCl2 added; control and EGF-stimulated cells (Supplementary Figure S3A)
Conditions: partners not purified

fold more ALG-2 interacting with ALIX in EGF-stimulated cells than in control cells: 3.5 fold
B1: ALG-2 (endogenous, HEK293 cells) (natural protein, human (endogenous in HEK293), UniProt O75340 1-191, looked up)
chain: MAAYSYRPGPGAGPGPAAGAALPDQSFLWNVFQRVDKDRSGVISDTELQQALSNGTWTPFNPVTVRSIISMFDRENKAGVNFSEFTGVWKYITDWQNVFRTYDRDNSGMIDKNELKQALSGFGYRLSDQFHDILIRKFDRQGRGQIAFDDFIQGCIVLQRLTDIFRRYDTDQDGWIQVSYEQYLSMVFSIV
notes: also called endogenous ALG-2; apoptosis-linked gene-2 product; source: endogenous, HEK293 membrane and soluble fractions and 0.1% Triton X-100 lysate
